Laboratory results reported in the supplement of paper PMC7877785.
± gives the uncertainty stated by the source.

Assay: self-splicing fitness, log relative to wild type (ln ratio); higher = more splicing; Tetrahymena group I intron in knt gene, E. coli kanamycin selection, DiMSum; sequences stand for … in CUCUCU…GGAGGGAAAAGUUAUCAGGCAUGCACCUGGUAGCUAGUCUUUAAACCAAUAGAUUGCAUCGGUUUAAAAGGCAAGACCGUCAAAUUGCGGGAAAGGGGUCAACAGCCGUUCAGUACCAAGUCUCAGGGGAAACUUUGAGAUGGCCUUGCAAAGGGUAUGGUAAUAAGCUGACGGACAUGGUCCUAACCACGCAGCCAAGUCCUAAGUCAACAGAUCUUCUGUUGAUAUGGAUGCAGUUCACAGACUAAAUGUCGGUCGGGGAAGAUGUAUUCUUCUCAUAAGAUAUAGUCGGACCUCUCCUUAAUGGGAGCUAGCGGAUGAAGUGAUGCAACACUGGAGCCGCUGGGAACUAAUUUGUAUGCGAAAGUAUAUUGAUUAGUUUUGGAGUACUCGUGGUCG
Outline: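 The eight P1ex-region nucleotides of an intron in the knt kanamycin-resistance gene on pET-22b(+) were all randomised and the library put into E. coli BL21(DE3). Six replicate transformations were grown overnight at 37°C or 30°C on LB agar with or without 25 μg/mL kanamycin, together with 100 μg/mL carbenicillin, 50 μM IPTG and 0.2% rhamnose. Colonies were pooled and amplicon-sequenced on an Illumina HiSeq 2500. Fitness from DiMSum is the error-weighted combination of wild-type-normalised replicate fold changes, kanamycin over none.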

Sequence	self-splicing fitness (ln) (30 °C)	self-splicing fitness (ln) (37 °C)
GAAUAGCAAUAUUACGGCCA	-0.596 ± 0.1	-0.0233 ± 0.13
GAAUAGCAAUAUUACGGGCU	-2.85 ± 0.16	-1.19 ± 0.13
GAAUAGCAAUAUUACGGGGG	-2.93 ± 0.26	-1.87 ± 0.25
GAAUAGCAAUAUUACGUACG	-1.38 ± 0.12	-1.45 ± 0.14
GAAUAGCAAUAUUACGUAUC	-1.7 ± 0.13	-1.75 ± 0.2
GAAUAGCAAUAUUACGUAUU	-2.18 ± 0.15	-1.45 ± 0.14
GAAUAGCAAUAUUACGUCAC	-2.47 ± 0.17	-1.31 ± 0.17
GAAUAGCAAUAUUACGUGAA	-1.74 ± 0.092	-0.782 ± 0.11
GAAUAGCAAUAUUACGUGAG	-1.19 ± 0.057	-0.737 ± 0.1
GACAAGCAAUAUUACGAACA	-1.52 ± 0.13	-0.000414 ± 0.11
GACAAGCAAUAUUACGAACU	-0.214 ± 0.066	0.284 ± 0.092
GACAAGCAAUAUUACGACAC	-0.384 ± 0.071	0.0329 ± 0.11
GACAAGCAAUAUUACGAUCU	-0.884 ± 0.079	-0.309 ± 0.097
GACAAGCAAUAUUACGCCAC	–	-2.64 ± 0.5
GACAAGCAAUAUUACGCCCG	-1.26 ± 0.17	-0.702 ± 0.37
GACAAGCAAUAUUACGCUGA	-2.53 ± 0.13	-1.55 ± 0.11
GACAAGCAAUAUUACGCUUA	-1.52 ± 0.098	-0.863 ± 0.1
GACAAGCAAUAUUACGGACU	-1.17 ± 0.075	0.137 ± 0.087
GACAAGCAAUAUUACGGAUA	-1.52 ± 0.12	-1.47 ± 0.12
GACAAGCAAUAUUACGGCAG	-4.14 ± 0.31	-3.08 ± 0.35
GACAAGCAAUAUUACGGCAU	-0.363 ± 0.067	0.227 ± 0.088
GACAAGCAAUAUUACGGCUC	-0.105 ± 0.07	0.0794 ± 0.1
GACAAGCAAUAUUACGGGAU	-2.65 ± 0.14	-0.632 ± 0.12
GACAAGCAAUAUUACGGGCA	-0.702 ± 0.049	-0.0944 ± 0.056
GACAAGCAAUAUUACGGGCG	-1.27 ± 0.061	-0.455 ± 0.072

Sequence	self-splicing fitness (ln) (30 °C)	self-splicing fitness (ln) (37 °C)
GACAAGCAAUAUUACGUCUU	-2.08 ± 0.082	-1.05 ± 0.085
GACAAGCAAUAUUACGUGUC	-4.44 ± 0.28	-3.22 ± 0.37
GACAAGCAAUAUUACGUUCG	-2.99 ± 0.19	-1.61 ± 0.12
GACCAGCAAUAUUACGACUG	-2.86 ± 0.15	-2.12 ± 0.17
GACCAGCAAUAUUACGACUU	0.432 ± 0.065	0.163 ± 0.076
GACCAGCAAUAUUACGAUUA	-0.607 ± 0.056	-0.446 ± 0.072
GACCAGCAAUAUUACGCAAC	-1.35 ± 0.082	-0.681 ± 0.1
GACCAGCAAUAUUACGCCGU	-0.962 ± 0.075	-0.0427 ± 0.08
GACCAGCAAUAUUACGCGUG	-0.273 ± 0.041	0.216 ± 0.059
GACCAGCAAUAUUACGCUGG	-3.16 ± 0.13	-2.95 ± 0.21
GACCAGCAAUAUUACGCUUG	-0.638 ± 0.089	-0.56 ± 0.11
GACCAGCAAUAUUACGGACU	-1.55 ± 0.082	-0.595 ± 0.1
GACCAGCAAUAUUACGGAGA	-1.25 ± 0.078	-0.461 ± 0.088
GACCAGCAAUAUUACGGAGC	-0.563 ± 0.077	-0.0895 ± 0.11
GACCAGCAAUAUUACGGAUG	-0.62 ± 0.056	0.157 ± 0.077
GACCAGCAAUAUUACGGCUA	0.142 ± 0.055	0.0036 ± 0.068
GACCAGCAAUAUUACGGCUG	-3.68 ± 0.18	-3.41 ± 0.25
GACCAGCAAUAUUACGGGUC	-4.01 ± 0.21	-3.33 ± 0.22
GACCAGCAAUAUUACGUAAA	0.0993 ± 0.067	-0.108 ± 0.094
GACCAGCAAUAUUACGUCGC	-1.89 ± 0.1	-0.411 ± 0.13
GACCAGCAAUAUUACGUGGG	-3.64 ± 0.12	-2.47 ± 0.12
GACCAGCAAUAUUACGUUCC	-2.31 ± 0.26	-1.76 ± 0.28
GACCAGCAAUAUUACGUUUG	-2.55 ± 0.073	-1.42 ± 0.081
GACGAGCAAUAUUACGAAAU	-2.5 ± 0.23	–
GACGAGCAAUAUUACGAAUC	–	-2.14 ± 0.4

Sequence	self-splicing fitness (ln) (30 °C)	self-splicing fitness (ln) (37 °C)
GACGAGCAAUAUUACGAGAU	-2.23 ± 0.3	–
GACGAGCAAUAUUACGAGCC	-2.73 ± 0.33	–
GACGAGCAAUAUUACGAUGU	-3.94 ± 0.26	-1.38 ± 0.14
GACGAGCAAUAUUACGCCCU	-2.99 ± 0.25	-1.47 ± 0.19
GACGAGCAAUAUUACGCGUU	-3.74 ± 0.23	-2.88 ± 0.25
GACGAGCAAUAUUACGCUUA	-2.29 ± 0.15	-1.13 ± 0.14
GACGAGCAAUAUUACGGGAA	-3.41 ± 0.31	-2.34 ± 0.19
GACGAGCAAUAUUACGGGUC	-3.77 ± 0.21	-3.28 ± 0.25
GACGAGCAAUAUUACGUAGA	-2.81 ± 0.26	-1.98 ± 0.22
GACGAGCAAUAUUACGUAGU	-2.9 ± 0.26	-1.88 ± 0.3
GACGAGCAAUAUUACGUCAG	–	-1.66 ± 0.23
GACGAGCAAUAUUACGUCGU	-3.59 ± 0.24	-2.34 ± 0.23
GACGAGCAAUAUUACGUCUC	-3.48 ± 0.36	-1.23 ± 0.28
GACGAGCAAUAUUACGUCUU	-2.63 ± 0.21	-1.01 ± 0.17
GACGAGCAAUAUUACGUGGA	-4 ± 0.21	-2.92 ± 0.21
GACGAGCAAUAUUACGUGGG	-4.32 ± 0.36	-3.12 ± 0.2
GACUAGCAAUAUUACGAAGU	-3.08 ± 0.17	-1.82 ± 0.22
GACUAGCAAUAUUACGAAUU	-1.35 ± 0.092	-0.277 ± 0.11
GACUAGCAAUAUUACGACAG	-2.92 ± 0.14	-2.4 ± 0.2
GACUAGCAAUAUUACGACUG	-1.64 ± 0.1	0.0415 ± 0.13
GACUAGCAAUAUUACGAGAG	-3.75 ± 0.18	-2.28 ± 0.14
GACUAGCAAUAUUACGAGUC	–	-2.36 ± 0.39
GACUAGCAAUAUUACGAUCA	-0.805 ± 0.062	-0.314 ± 0.077
GACUAGCAAUAUUACGAUGC	-0.221 ± 0.062	0.0502 ± 0.082
GACUAGCAAUAUUACGCACC	-0.905 ± 0.18	0.000851 ± 0.28

Sequence	self-splicing fitness (ln) (30 °C)	self-splicing fitness (ln) (37 °C)
GACUAGCAAUAUUACGCAGA	-2.34 ± 0.16	-1.62 ± 0.17
GACUAGCAAUAUUACGCCUA	-0.114 ± 0.18	-0.547 ± 0.15
GACUAGCAAUAUUACGCGAA	-1.83 ± 0.18	-0.638 ± 0.17
GACUAGCAAUAUUACGCGAG	-2.49 ± 0.21	-1.28 ± 0.15
GACUAGCAAUAUUACGCGGU	-3.62 ± 0.17	-3.27 ± 0.28
GACUAGCAAUAUUACGCGUG	-1.44 ± 0.061	-0.609 ± 0.067
GACUAGCAAUAUUACGCUUA	-0.282 ± 0.17	-0.7 ± 0.14
GACUAGCAAUAUUACGGACG	-1.4 ± 0.21	-1.85 ± 0.13
GACUAGCAAUAUUACGGAGC	-1.58 ± 0.16	-2.19 ± 0.2
GACUAGCAAUAUUACGGAGG	–	-1.68 ± 0.4
GACUAGCAAUAUUACGGAUG	-2.9 ± 0.11	-1.29 ± 0.1
GACUAGCAAUAUUACGGCAA	-0.738 ± 0.08	-0.302 ± 0.09
GACUAGCAAUAUUACGGCAG	-2.84 ± 0.14	-2.49 ± 0.23
GACUAGCAAUAUUACGGCGC	0.0438 ± 0.14	-0.0936 ± 0.17
GACUAGCAAUAUUACGGGUC	-3.22 ± 0.19	-2.71 ± 0.28
GACUAGCAAUAUUACGGUGC	-2.65 ± 0.14	-1.73 ± 0.16
GACUAGCAAUAUUACGUAAC	-1.33 ± 0.073	-0.875 ± 0.1
GACUAGCAAUAUUACGUAGC	-2.47 ± 0.11	-1.4 ± 0.1
GACUAGCAAUAUUACGUCGU	-3.23 ± 0.18	-1.47 ± 0.13
GACUAGCAAUAUUACGUCUA	-2.89 ± 0.2	-0.852 ± 0.12
GACUAGCAAUAUUACGUGUA	-1.06 ± 0.067	-0.258 ± 0.069
GACUAGCAAUAUUACGUUCA	-0.661 ± 0.11	-0.533 ± 0.12
